Experimental findings from article PMC8227597 are described below.

Broadly, the Kd is the concentration at which binding is half-saturated. A high value points to lower affinity.

The target in this test is Biotinylated human ACE2 (angiotensin-converting enzyme 2) (human) (UniProt Q9BYF1). Kind of test: SPR.

Turning to “Trimer spike of SARS-CoV-2, furin cleavage site deleted and two stabilizing mutations, C-terminal His-tag (domain or fragment)”, the Kd is 700 pM.
